Consider 125 sequences from the supplement of paper PMC9112550, “Optimization of the antimicrobial peptide Bac7 by deep mutational scanning” (BMC Biology, 2022).

The test system of the data set is Escherichia coli TOP10. The experiment in a line: shrunken log2 fold change of peptide-encoding DNA abundance (4.5 h post-induction vs induction); higher = less antimicrobial activity (less host growth inhibition). Conditions: time post-induction: 4.5 h; library: site-saturation at positions 5, 18, 19, 20.
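Further: peptides expressed intracellularly from a pBAD plasmid library in pooled LB shake-flask culture, induced with 0.3% L-arabinose, DNA abundance read by NGS, three biological replicates, DESeq2 with apeglm shrinkage.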

Consider RRIRRRPPRLPRPRPRPFDQPRP, for which the “shrunken log2 fold change” value was 0.0321.

As to RRIRCRPPRLPRPRPRPVSYPRP, the “shrunken log2 fold change” value came out at 0.0707. In the case of RRIRNRPPRLPRPRPRPGQRPRP it was 0.00993. With RRIRPRPPRLPRPRPRPKTPPRP, the “shrunken log2 fold change” value came out at 0.0677. To RRIRGRPPRLPRPRPRPECDPRP belongs 2.16. In the case of RRIRNRPPRLPRPRPRPVWSPRP it was 0.0637. Turning to RRIRFRPPRLPRPRPRPKKPPRP, the “shrunken log2 fold change” value was -0.0169. As for RRIRFRPPRLPRPRPRPQVVPRP, the “shrunken log2 fold change” value is -0.152.

Take RRIRMRPPRLPRPRPRPTYWPRP: the “shrunken log2 fold change” value stood at 0.169. For RRIRVRPPRLPRPRPRPEWMPRP, the “shrunken log2 fold change” value is 0.0845. Consider RRIRCRPPRLPRPRPRPKLWPRP, for which the “shrunken log2 fold change” value was found to be 0.121. With RRIRFRPPRLPRPRPRPSTKPRP, the “shrunken log2 fold change” value is 0.0858. On to RRIRMRPPRLPRPRPRPYCFPRP, for which the “shrunken log2 fold change” value was -0.28. To RRIRQRPPRLPRPRPRPHLMPRP belongs 0.106; to RRIRQRPPRLPRPRPRPTIPPRP, -0.205.

In the case of RRIRIRPPRLPRPRPRPYQTPRP, the “shrunken log2 fold change” value was -0.0792. RRIRMRPPRLPRPRPRPGDFPRP: the “shrunken log2 fold change” value amounted to 0.215.

Take RRIRVRPPRLPRPRPRPFVQPRP: the “shrunken log2 fold change” value is -0.0696. In the case of RRIRCRPPRLPRPRPRPHPLPRP it was 0.989. RRIRRRPPRLPRPRPRPHMVPRP: the “shrunken log2 fold change” value is -0.355.

In the case of RRIRYRPPRLPRPRPRPLPSPRP, the “shrunken log2 fold change” value is -0.14. On to RRIRKRPPRLPRPRPRPNTTPRP, for which the “shrunken log2 fold change” value is -0.0509. In the case of RRIRSRPPRLPRPRPRPHGSPRP it was -0.0567; in that of RRIRTRPPRLPRPRPRPCDLPRP, 0.0183. In the case of RRIRKRPPRLPRPRPRPPWIPRP it was -0.0983. In the case of RRIRVRPPRLPRPRPRPATNPRP it was -0.301; in that of RRIRKRPPRLPRPRPRPQQRPRP, 0.0562; in that of RRIRHRPPRLPRPRPRPKNVPRP, -0.0354.

As for RRIRSRPPRLPRPRPRPHDVPRP, the “shrunken log2 fold change” value was -0.0229. Turning to RRIRQRPPRLPRPRPRPISNPRP, the “shrunken log2 fold change” value was -0.223.

For RRIRNRPPRLPRPRPRPMAYPRP, the “shrunken log2 fold change” value is -0.161.

For RRIRSRPPRLPRPRPRPFYKPRP, the “shrunken log2 fold change” value is -0.426.

For RRIRGRPPRLPRPRPRPICQPRP, the “shrunken log2 fold change” value turned out to be 0.655. Take RRIRHRPPRLPRPRPRPHRNPRP: the “shrunken log2 fold change” value was -0.117. As to RRIRGRPPRLPRPRPRPFNEPRP, the “shrunken log2 fold change” value was -0.231.

Turning to RRIRARPPRLPRPRPRPFIPPRP, the “shrunken log2 fold change” value is -0.492.

On to RRIRPRPPRLPRPRPRPSWGPRP, for which the “shrunken log2 fold change” value is -0.0123. In the case of RRIRSRPPRLPRPRPRPDNHPRP it was -0.307; in that of RRIRWRPPRLPRPRPRPWEAPRP, 0.396; in that of RRIRKRPPRLPRPRPRPVSVPRP, -0.0496. In the case of RRIRDRPPRLPRPRPRPKDNPRP it was -0.116.

Turning to RRIRARPPRLPRPRPRPFHLPRP, the “shrunken log2 fold change” value was -0.36. In the case of RRIRRRPPRLPRPRPRPGLCPRP it was 0.457; in that of RRIRYRPPRLPRPRPRPLWTPRP, -0.563. To RRIRDRPPRLPRPRPRPYYVPRP belongs 0.0365; to RRIRRRPPRLPRPRPRPAIYPRP, -0.148; to RRIRKRPPRLPRPRPRPYMIPRP, -0.415. In the case of RRIRRRPPRLPRPRPRPWGNPRP it was 0.352; in that of RRIRRRPPRLPRPRPRPFAHPRP, -0.00279; in that of RRIRCRPPRLPRPRPRPNCRPRP, -0.00263. For the sequence RRIRSRPPRLPRPRPRPTCLPRP, the “shrunken log2 fold change” value is -0.117. In the case of RRIRLRPPRLPRPRPRPFRKPRP, the “shrunken log2 fold change” value worked out at 0.0823. Regarding RRIRYRPPRLPRPRPRPGMDPRP, the “shrunken log2 fold change” value was -0.299. For RRIRTRPPRLPRPRPRPSIKPRP, the “shrunken log2 fold change” value is -0.556.

For RRIRWRPPRLPRPRPRPETQPRP, the “shrunken log2 fold change” value turned out to be 0.0616. In the case of RRIRRRPPRLPRPRPRPREQPRP, the “shrunken log2 fold change” value stood at 0.803. As to RRIRCRPPRLPRPRPRPFKWPRP, the “shrunken log2 fold change” value is -0.115. To RRIRGRPPRLPRPRPRPSDCPRP belongs 0.105; to RRIRMRPPRLPRPRPRPNGAPRP, 0.0765.

On to RRIRQRPPRLPRPRPRPIKDPRP, for which the “shrunken log2 fold change” value was -0.034. With RRIRMRPPRLPRPRPRPKNLPRP, the “shrunken log2 fold change” value is -0.102. To RRIRVRPPRLPRPRPRPSHGPRP belongs -0.143; to RRIRHRPPRLPRPRPRPAVDPRP, 0.0722. As to RRIRCRPPRLPRPRPRPIPQPRP, the “shrunken log2 fold change” value came to 0.153.

Consider RRIRNRPPRLPRPRPRPVSAPRP, for which the “shrunken log2 fold change” value came to 0.219. In the case of RRIRPRPPRLPRPRPRPVTPPRP it was 0.125; in that of RRIRVRPPRLPRPRPRPVLHPRP, -0.243. For the sequence RRIRMRPPRLPRPRPRPHNMPRP, the “shrunken log2 fold change” value was -0.243. Turning to RRIRDRPPRLPRPRPRPVVSPRP, the “shrunken log2 fold change” value worked out at 0.0706. To RRIRLRPPRLPRPRPRPTRFPRP belongs 0.42; to RRIRQRPPRLPRPRPRPCVDPRP, 0.148. Consider RRIRCRPPRLPRPRPRPNMGPRP, for which the “shrunken log2 fold change” value was -0.14. In the case of RRIRLRPPRLPRPRPRPAVHPRP it was -0.149; in that of RRIRCRPPRLPRPRPRPKTEPRP, -0.0486; in that of RRIRARPPRLPRPRPRPTEHPRP, 0.46. Consider RRIRWRPPRLPRPRPRPWPNPRP, for which the “shrunken log2 fold change” value was determined as 0.0899. As for RRIRPRPPRLPRPRPRPEECPRP, the “shrunken log2 fold change” value was -0.105. For the sequence RRIRIRPPRLPRPRPRPEAVPRP, the “shrunken log2 fold change” value is 0.0843. In the case of RRIRRRPPRLPRPRPRPSCIPRP it was -0.596; in that of RRIRFRPPRLPRPRPRPNMTPRP, -0.43; in that of RRIRVRPPRLPRPRPRPCMKPRP, -0.104.

Turning to RRIRSRPPRLPRPRPRPHITPRP, the “shrunken log2 fold change” value was -0.734. To RRIRARPPRLPRPRPRPAVHPRP belongs 0.175; to RRIRDRPPRLPRPRPRPCECPRP, -0.201. RRIRFRPPRLPRPRPRPWGSPRP: the “shrunken log2 fold change” value was -0.0689. To RRIRKRPPRLPRPRPRPAYVPRP belongs 0.108.

As to RRIRTRPPRLPRPRPRPWMAPRP, the “shrunken log2 fold change” value is -0.295. On to RRIRNRPPRLPRPRPRPRMGPRP, for which the “shrunken log2 fold change” value was found to be 0.0394.

Take RRIRRRPPRLPRPRPRPVWHPRP: the “shrunken log2 fold change” value was determined as 0.278.

With RRIRVRPPRLPRPRPRPMLTPRP, the “shrunken log2 fold change” value was -0.066.

RRIRERPPRLPRPRPRPQGGPRP: the “shrunken log2 fold change” value is -0.0586.

On to RRIRERPPRLPRPRPRPCLTPRP, for which the “shrunken log2 fold change” value is -0.0208. To RRIRKRPPRLPRPRPRPSEYPRP belongs -0.026.

Regarding RRIRERPPRLPRPRPRPMFSPRP, the “shrunken log2 fold change” value was -0.104. In the case of RRIRFRPPRLPRPRPRPIHGPRP it was -0.0163; in that of RRIRWRPPRLPRPRPRPIHSPRP, -0.0401; in that of RRIRWRPPRLPRPRPRPELDPRP, 1.82.

Turning to RRIRRRPPRLPRPRPRPYMRPRP, the “shrunken log2 fold change” value is 0.044. In the case of RRIRDRPPRLPRPRPRPQFEPRP it was 0.0888. As for RRIRRRPPRLPRPRPRPTLRPRP, the “shrunken log2 fold change” value amounted to 0.712. To RRIRKRPPRLPRPRPRPFFLPRP belongs 0.225; to RRIRRRPPRLPRPRPRPCNVPRP, 0.0391.

Turning to RRIRDRPPRLPRPRPRPFPSPRP, the “shrunken log2 fold change” value is -0.0268. On to RRIRARPPRLPRPRPRPFSYPRP, for which the “shrunken log2 fold change” value was -0.0901. In the case of RRIRMRPPRLPRPRPRPQPDPRP it was 0.658; in that of RRIRCRPPRLPRPRPRPDVHPRP, -0.241; in that of RRIRQRPPRLPRPRPRPRVEPRP, -0.0308. Consider RRIRFRPPRLPRPRPRPMEVPRP, for which the “shrunken log2 fold change” value is -0.00205. In the case of RRIRARPPRLPRPRPRPSFDPRP it was 0.103. For RRIRLRPPRLPRPRPRPSKEPRP, the “shrunken log2 fold change” value was -0.4. To RRIRARPPRLPRPRPRPAVDPRP belongs 0.289; to RRIRTRPPRLPRPRPRPYDNPRP, -0.141; to RRIRSRPPRLPRPRPRPGRSPRP, 0.109. In the case of RRIRHRPPRLPRPRPRPFQWPRP it was -0.139; in that of RRIRERPPRLPRPRPRPRAMPRP, 0.0549; in that of RRIRPRPPRLPRPRPRPKCNPRP, -0.125.

With RRIRFRPPRLPRPRPRPNLQPRP, the “shrunken log2 fold change” value is -0.264.

Turning to RRIRLRPPRLPRPRPRPDGWPRP, the “shrunken log2 fold change” value was found to be 0.257. In the case of RRIRIRPPRLPRPRPRPWIGPRP it was -0.0616; in that of RRIRKRPPRLPRPRPRPVNHPRP, -0.0443; in that of RRIRWRPPRLPRPRPRPGENPRP, -0.0316. As for RRIRHRPPRLPRPRPRPNYMPRP, the “shrunken log2 fold change” value is -0.0657. To RRIRCRPPRLPRPRPRPYGYPRP belongs -0.0837; to RRIRTRPPRLPRPRPRPNIWPRP, 0.682. With RRIRIRPPRLPRPRPRPCHAPRP, the “shrunken log2 fold change” value was -0.618.
